Experimental data: paper doi:10.1101/2025.07.31.667873 (bioRxiv, 2025)

Molecular target: SF3B5 (human (endogenous in K562), UniProt Q9BWJ5 1-86)
Assay: cryo-EM structure

B1: TAF6L (natural protein)
chain: MSEREERRFVEIPRESVRLMAESTGLELSDEVAALLAEDVCYRLREATQNSSQFMKHTKRRKLTVEDFNRALRWSSVEAVCGYGSQEALPMRPAREGELYFPEDREVNLVELALATNIPKGCAETAVRVHVSYLDGKGNLAPQGSVPSAVSSLTDDLLKYYHQVTRAVLGDDPQLMKVALQDLQTNSKIGALLPYFVYVVSGVKSVSHDLEQLHRLLQVARSLFRNPHLCLGPYVRCLVGSVLYCVLEPLAASINPLNDHWTLRDGAALLLSHIFWTHGDLVSGLYQHILLSLQKILADPVRPLCCHYGAVVGLHALGWKAVERVLYPHLSTYWTNLQAVLDDYSVSNAQVKADGHKVYGAILVAVERLLKMKAQAAEPNRGGPGGRGCRRLDDLPWDSLLFQESSSGGGAEPSFGSGLPLPPGGAGPEDPSLSVTLADIYRELYAFFGDSLATRFGTGQPAPTAPRPPGDKKEPAAAPDSVRKMPQLTASAIVSPHGDESPRGSGGGGPASASGPAASESRPLPRVHRARGAPRQQGPGTGTRDVFQKSRFAPRGAPHFRFIIAGRQAGRRCRGRLFQTAFPAPYGPSPASRYVQKLPMIGRTSRPARRWALSDYSLYLPL
- binding result: binds
